“Also recorded” adds a separate entry of the source.
Experiments:
[1] = tested on: HIV-1; conditions: macrophages; ref [34]; cited from earlier work
From the text: A particular local immune event that has been well studied in the context of HPV infection is mucosal co-infection with herpes simplex virus (HSV). Historically, in the 1960s and 1970s, HSV-2 infection was thought to be a possible causative agent for cervical cancer, [31]. However, the role of HSV-2 in cervical cancer began to be questioned when HSV-2 DNA was not consistently found in cervical cancer tissues. Subsequently, HPV DNA was detected in the overwhelming majority of cervical cancer tissue and determined to be the causative agent. […] To test this hypothesis, the effect of SLPI and antibody inhibition of A2t on HPV16 infection of epithelial cel ...

[2] = tested on: HPV16 PsV infection of HeLa cells; assay: HPV16 PsV infection of HeLa cells (GFP, flow cytometry); type: cell-based, human; conditions: presence of FBS during SLPI incubation and PsV infection; data not shown
Experimental: (§1) HeLa cells (ATCC, Manassas, VA) are human epithelial cells derived from cervical cancer, and were maintained in complete media (IMDM, 10% FBS, 1X PenStrep) at 37°C with 5% CO2 (Lonza, Walkersville, MD). HaCaT cells (Cell Lines Service, Eppelheim, Germany) are in vitro spontaneously transformed human keratinocytes derived from histologically normal skin [75] and were maintained in Defined Keratinocyte Serum-Free Media (KSFM) (Invitrogen, Carlsbad, CA) with manufacturer provided KSFM growth supplement (including insulin, EGF, and FGF) at 37°C with 5% CO2.
Wildtype HPV16 pseudovirions containing GFP reporter were produced by cotransfection of 293TT cells with plasmids encoding codon-optimized HPV16 L1 and L2 and a GFP reporter plasmid (pCIneoGFP) following published procedures. The infectious titer of PsV preparations (in infectious units/mL) was determined by flow cytometric analysis of 293TT cells treated with varying doses of PsV vector stock. […] Confirmation and quantitation of reporter plasmid DNA encapsidation was performed using quantitative real-time PCR following plasmid DNA isolation from pseudovirion preparations by phenol chloroform extraction and ethanol precipitation. L1 content was quantitated by Coomassie Blue staining next to BSA standards following SDS-PAGE. The infectious titer of L2 mutant PsV were determined on 293TT cells as described above for WT PsV. […]

[3] = tested on: HPV16 PsV infection of HeLa cells; conditions: PsV infectivity, FBS present; ref [38]; cited from earlier work
Experimental: SLPI has shown anti-bacterial and anti-fungal activity aside from its noted anti-protease activity (reviewed in [68]). […] Concentrations in cervical mucosal fluids are commonly reported at 1 µg/ml, but are likely to be more concentrated at the cell surface. In addition, SLPI levels in cervical mucus have been measured midcycle as high as ...

[4] = tested on: HSV; conditions: ref [33]; cited from earlier work
From the text: Nonetheless, the link between HSV and H ...

[5] = tested on: A2t; assay: ELISA binding to immobilised A2t; set-up: species or system human; conditions: 500 ng A2t coated, 400 ng PsV, H16.V5 or anti-SLPI detection
Experimental: For assays to determine accessibility of L2_108–120 epitope on capsid surface, 96-well Microlon ELISA plates (USA Scientific, Ocala, FL) were incubated with 500 ng of HPV16 L1 VLP, HPV16 L1L2 VLP or HPV16 PsV in 100 µL PBS overnight at 4°C. The plate was washed with PBST ([…]) and blocked with 200 µL of PBS containing 3% BSA for 2 h at RT. The plate was washed with PBST and incubated with 1∶1000 16L2.4B4 (anti-L2_108–120) or 1∶5000 H16.V5 (anti-L1) in PBST with 1% BSA for 2 h at RT. The plate was washed and incubated with 1∶5000 rabbit-anti-mouse HRP in PBST with 1% BSA for 1 h at RT. The plate was washed, and 100 µL of the HRP substrate (o-phenylenediamine) was added. The absorbance was measured at 490 nm with a Hidex Chameleon plate reader. In control experiments, no VLP or PsV were added, and stained with primary, secondary, or both antibodies and minimal absorbance was seen. For assays to determine in vitro binding capacity of HPV16 capsids to purified A2t protein, 500 ng of purified A2t was coated separately on ELISA plates overnight at 4°C. […] Bound PsV were detected with conformational anti-L1 H16.V5 antibody, followed by anti-mouse IgG HRP antibody conjugate. Bound SLPI was detected with goat anti-SLPI antibody, followed by anti-goat IgG HRP antibody conjugate and addition of substrate.

[6] = tested on: HPV16 PsV infection of HaCaT cells; assay: HPV16 PsV infection of HaCaT cells (GFP, flow cytometry); type: cell-based, human
Experimental: as §1
Wildtype HPV16 pseudovirions containing GFP reporter were produced by cotransfection of 293TT cells with plasmids encoding codon-optimized HPV16 L1 and L2 and a GFP reporter plasmid (pCIneoGFP) following published procedures. The infectious titer of PsV preparations (in infectious units/mL) was determined by flow cytometric analysis of 293TT cells treated with varying doses of PsV vector stock. Neutralization of PsV were validated in infection assays via pre-incubation with H16.V5 or H16.E70 prior to cellular exposure, and minimal infection rates of less than 1% were observed. To produce pseudovirions with a mutated L2 (108–126) region, site-directed mutagenesis was performed using overlapping mutated primers on the bicistronic packaging HPV16 pseudovirion plasmid p16sheLL as a template. Forward primer 5′-[…]-3′ and reverse primer 5′-[…]-3′ encoding the amino acid substitution of GGDD for LVEE in the L2 capsid region aa 108–111 were used with the QuikChange II XL Site-Directed Mutagenesis Kit (Stratagene, Cedar Creek, TX) according to manufacturer’s instructions. The entire L1 and L2 ORFs of the resulting plasmid were sequenced to confirm mutagenesis of the 108–111 aa L2 region and that no other unexpected mutations were introduced. HPV16 L1–L2(GGDD) PsV containing GFP reporter plasmid were produced as described above for wildtype HPV16 PsV. Confirmation and quantitation of reporter plasmid DNA encapsidation was performed using quantitative real-time PCR following plasmid DNA isolation from pseudovirion preparations by phenol chloroform extraction and ethanol precipitation. L1 content was quantitated by Coomassie Blue staining next to BSA standards following SDS-PAGE. The infectious titer of L2 mutant PsV were determined on 293TT cells as described above for WT PsV.
HaCaT cells seeded at 3×10^4 cells/well or HeLa cells seeded at 2×10^4 cells/well were incubated overnight in 24-well plates at 37°C. The cells were subsequently incubated with wildtype HPV16 PsV containing a pCIneo-GFP vector at an MOI 100 for HaCaT or MOI of 1 for HeLa. The MOIs were chosen for each cell type that achieved 15–25% GFP-positive cells. Infectivity was scored 48 h post infection by enumerating GFP+ cells by flow cytometry. […]

B1: secretory leukocyte protease inhibitor (protein)
chain: SGKSFKAGVCPPKKSAQCLRYKKPECQSDWQCPGKKRCCPDTCGIKCLDPVDTPNPTRRKPGKCPVTYGQCLMLNPPNFCEMDGQCKRDLKCCMGMCGKSCVSPVKA
notes: endogenous annexin A2 ligand
- inhibition of HIV-1 infection [1]: inhibit HIV-1 infection of macrophages; also recorded: inhibits the infection of HIV-1
- PsV infection, presence of FBS [2]: no reduced infection; also recorded: eliminated the blocking effect of SLPI completely
- HPV16 infection of HeLa, SLPI in presence of FBS [3]: no reduction in HPV16 infection
- inhibition of HSV infection [4]: inhibit HSV infection
- binding to A2t (absorbance at 490 nm) [5]: significant binding
- pseudo-infection, 25 µg/mL ([6]; 25 µg/mL SLPI vs negative and BSA controls, serum free): significant decrease in pseudo-infection
- pseudo-infection, 50 µg/mL ([6]; 50 µg/mL SLPI vs negative and BSA controls, serum free): pseudo-infection further decreased
- decrease in pseudo-infection ([6]; 25–50 µg/mL SLPI, 1 h at 4°C prior to PsV, serum free, vs untreated HaCaT cells, 48 h): 60–80%
- SLPI inhibition of HPV16 infection ([6]; HaCaT cells, discussion): can inhibit HPV16 infection

From article PMC3425544, “The S100A10 Subunit of the Annexin A2 Heterotetramer Facilitates L2-Mediated Human Papillomavirus Infection” (PLoS ONE, 2012)
